Data reported in the Human Domainome abundance scans (Beltran et al. 2025).
± gives the uncertainty stated by the source.

B1: SWI/SNF-related matrix-associated actin-dependent regulator of chromatin subfamily B member 1, residues 181 to 248; numbered along this chain, Q12824 (parent)
chain: SQPEVLVPIRLDMEIDGQKLRDAFTWNMNEKLMTPEMFSEILCDDLDLNPLTFVPAIASAIRQQIESY

Variants of: B1
Assay: abundance fitness (aPCA) (normalised: wild type 0, dead -1); higher = more abundant; growth selection in yeast, the domain comes from the species named
Settings: Homo sapiens

Abundance fitness of substitutions, site by site:
I65: E -0.994 ± 0.41; C 0.036 ± 0.24; T -0.141 ± 0.11; G -1.05 ± 0.23; R -0.543 ± 0.14; Q -0.852 ± 0.22; L -0.069 ± 0.12; M -0.477 ± 0.13; P -0.689 ± 0.26
I61: A -0.763 ± 0.1; T -0.594 ± 0.16; V -0.536 ± 0.1; W -0.989 ± 0.25; K -0.75 ± 0.17; R -0.878 ± 0.12; G -0.854 ± 0.15; D -0.827 ± 0.29; C -0.956 ± 0.27; L -0.725 ± 0.26; M -0.461 ± 0.089; S -1.06 ± 0.17
T52: Q -0.215 ± 0.1; I -0.417 ± 0.4; G -0.634 ± 0.14; C -0.31 ± 0.24; S -0.14 ± 0.17; R -0.21 ± 0.057; L -0.163 ± 0.14; K 0.189 ± 0.071; F -0.412 ± 0.26; H -0.104 ± 0.22; V -0.005 ± 0.095; D -0.168 ± 0.31
A58: S -0.072 ± 0.17
R62: Q -0.192 ± 0.083; K -0.043 ± 0.047; T -0.3 ± 0.053; P -0.718 ± 0.2; L -0.553 ± 0.075; W -0.75 ± 0.18; A -0.66 ± 0.4; F -0.69 ± 0.37; N -0.256 ± 0.083; C -0.629 ± 0.15; Y -0.119 ± 0.45; I -0.824 ± 0.21; H -0.239 ± 0.14; M -0.619 ± 0.11; S -0.386 ± 0.054
F53: L -0.813 ± 0.34
V54: I -0.241 ± 0.077; F -0.739 ± 0.32; R -0.22 ± 0.16; A -0.119 ± 0.44; S -0.324 ± 0.14; G 0.144 ± 0.14; P -0.593 ± 0.23; M -0.335 ± 0.28; L -0.684 ± 0.21
Q63: C -0.129 ± 0.066; D -0.019 ± 0.082; T -0.043 ± 0.055; P -0.758 ± 0.2; F -0.232 ± 0.1; E -0.163 ± 0.11; M -0.257 ± 0.084; Y 0.105 ± 0.2; A -0.057 ± 0.043; K -0.067 ± 0.073; S 0.011 ± 0.052; R -0.115 ± 0.049; L -0.276 ± 0.045; V -0.293 ± 0.043; N -0.038 ± 0.075; W -0.467 ± 0.078
P55: T 0.479 ± 0.38
Q64: M -0.904 ± 0.18; A -0.354 ± 0.083; D -1.22 ± 0.4; V -0.941 ± 0.1; P -0.878 ± 0.12; S -0.563 ± 0.052; F -0.584 ± 0.082; E -0.338 ± 0.068; Y -0.795 ± 0.45; K -0.97 ± 0.25; W -0.618 ± 0.097; T -0.658 ± 0.086; H -0.741 ± 0.12; C -0.863 ± 0.12; I -0.898 ± 0.11; R -0.709 ± 0.061; L -0.52 ± 0.056
A56: Q -0.095 ± 0.12; K -0.041 ± 0.13; H -0.123 ± 0.081; G -0.523 ± 0.049; Y -0.421 ± 0.092; N -0.654 ± 0.19; W -0.628 ± 0.086; F -0.623 ± 0.16; C -0.384 ± 0.066; S -0.278 ± 0.03; V -0.319 ± 0.052; I -0.375 ± 0.11; E -0.134 ± 0.049; D -0.552 ± 0.11; P -0.564 ± 0.16; T -0.566 ± 0.11; M -0.416 ± 0.11
P50: I -1 ± 0.35; V -0.772 ± 0.085; N -0.567 ± 0.1; Y -0.714 ± 0.15; Q -0.508 ± 0.15; T -0.364 ± 0.093; R 0.021 ± 0.045; S -0.389 ± 0.046; G -0.77 ± 0.047; F -0.285 ± 0.14; K 0.138 ± 0.053; E -0.818 ± 0.13; H -0.039 ± 0.082; M -1.03 ± 0.43; L -0.933 ± 0.17; D -0.986 ± 0.2; W -0.845 ± 0.14
L51: T -0.174 ± 0.12; A 0.041 ± 0.088; D 0.125 ± 0.18; H 0.002 ± 0.083; S 0.044 ± 0.065; E 0.185 ± 0.089; V 0.042 ± 0.11
I57: M -0.417 ± 0.068; V -0.177 ± 0.056; E -0.749 ± 0.21; P -1.04 ± 0.28; W -0.615 ± 0.2; R -0.912 ± 0.11; T -0.855 ± 0.14; Q -0.779 ± 0.18; K -0.931 ± 0.14; A -0.781 ± 0.13; N -0.542 ± 0.13; Y -0.713 ± 0.19; S -0.802 ± 0.096; H -1.03 ± 0.2; F -0.957 ± 0.15; L -0.76 ± 0.068; G -0.781 ± 0.1
A60: T -0.081 ± 0.043; K -0.214 ± 0.068; E 0.085 ± 0.089; V -0.286 ± 0.047; N -0.28 ± 0.092; L -0.72 ± 0.082; G -0.528 ± 0.078; F -0.725 ± 0.17; C -0.068 ± 0.082; Y -0.637 ± 0.11; W -0.71 ± 0.22; Q 0.068 ± 0.049; H -0.311 ± 0.066; S 0.076 ± 0.03; P -0.974 ± 0.17; R -0.285 ± 0.05
